Measurements from the supplement of paper PMC11246515.
± gives the standard deviation of the averaged measurements.

Test: total protein half-life in vivo (active degradation + dilution); higher = more stable protein
[1] = E. coli NCM3722 delta-clpP delta-lon delta-hslV, growth: N-lim chemostat, doubling time 6 h
[2] = E. coli NCM3722 delta-clpP, growth: N-lim chemostat, doubling time 6 h
[3] = E. coli NCM3722 delta-hslV, growth: N-lim chemostat, doubling time 6 h
[4] = E. coli NCM3722 delta-lon, growth: N-lim chemostat, doubling time 6 h
[5] = E. coli NCM3722 delta-smpB, growth: N-lim chemostat, doubling time 6 h
[6] = wild type E. coli NCM3722, growth: C-lim chemostat, doubling time 3 h
[7] = wild type E. coli NCM3722, growth: C-lim chemostat, doubling time 6 h
[8] = wild type E. coli NCM3722, growth: C-lim chemostat, doubling time 12 h
[9] = wild type E. coli NCM3722, growth: N-lim chemostat, doubling time 6 h
[10] = wild type E. coli NCM3722, growth: N-lim chemostat, doubling time 12 h
[11] = wild type E. coli NCM3722, growth: P-lim chemostat, doubling time 6 h
[12] = wild type E. coli NCM3722, growth: P-lim chemostat, doubling time 12 h

Sequence	total protein half-life in vivo [1] [h]	total protein half-life in vivo [2] [h]	total protein half-life in vivo [3] [h]	total protein half-life in vivo [4] [h]	total protein half-life in vivo [5] [h]	total protein half-life in vivo [6] [h]	total protein half-life in vivo [7] [h]	total protein half-life in vivo [8] [h]	total protein half-life in vivo [9] [h]	total protein half-life in vivo [10] [h]	total protein half-life in vivo [11] [h]	total protein half-life in vivo [12] [h]
MKRAVITGLGIVSSIGNNQQEVLASLREGRSGITFSQELKDSGMRSHVWGNVKLDTTGLIDRKVVRFMSDASIYAFLSMEQAIADAGLSPEAYQNNPRVGLIAGSGGGSPRFQVFGADAMRGPRGLKAVGPYVVTKAMASGVSACLATPFKIHGVNYSISSACATSAHCIGNAVEQIQLGKQDIVFAGGGEELCWEMACEFDAMGALSTKYNDTPEKASRTYDAHRDGFVIAGGGGMVVVEELEHALARGAHIYAEIVGYGATSDGADMVAPSGEGAVRCMKMAMHGVDTPIDYLNSHGTSTPVGDVKELAAIREVFGDKSPAISATKAMTGHSLGAAGVQEAIYSLLMLEHGFIAPSINIEELDEQAAGLNIVTETTDRELTTVMSNSFGFGGTNATLVMRKLKD [P0A953]	5.27 ± 0.45	5.06 ± 0.069	4.81 ± 0.16	4.98 ± 0.26	4.81 ± 0.049	2.99 ± 0.039	6.06 ± 0.36	10.8 ± 0.81	4.78 ± 0.11	8.39 ± 0.45	5.89 ± 0.25	12.3 ± 0.21
MKRKLFWICAVAMGMSAFPSFMTQATPATQPLINAEPAVAAQTEQNPQVGQVMPGVQGADAPVVAQNGPSRDVKLTFAQIAPPPGSMVLRGINPNGSIEFGMRSDEVVTKAMLNLEYTPSPSLLPVQSQLKVYLNDELMGVLPVTKEQLGKKTLAQMPINPLFISDFNRVRLEFVGHYQDVCEKPASTTLWLDVGRSSGLDLTYQTLNVKNDLSHFPVPFFDPSDNRTNTLPMVFAGAPDVGLQQASAIVASWFGSRSGWRGQNFPVLYNQLPDRNAIVFATNDKRPDFLRDHPAVKAPVIEMINHPQNPYVKLLVVFGRDDKDLLQAAKGIAQGNILFRGESVVVNEVKPLLPRKPYDAPNWVRTDRPVTFGELKTYEEQLQSSGLEPAAINVSLNLPPDLYLMRSTGIDMDINYRYTMPPVKDSSRMDISLNNQFLQSFNLSSKQEANRLLLRIPVLQGLLDGKTDVSIPALKLGATNQLRFDFEYMNPMPGGSVDNCITFQPVQNHVVIGDDSTIDFSKYYHFIPMPDLRAFANAGFPFSRMADLSQTITVMPKAPNEAQMETLLNTVGFIGAQTGFPAINLTVTDDGSTIQGKDADIMIIGGIPDKLKDDKQIDLLVQATESWVKTPMRQTPFPGIVPDESDRAAETRSTLTSSGAMAAVIGFQSPYNDQRSVIALLADSPRGYEMLNDAVNDSGKRATMFGSVAVIRESGINSLRVGDVYYVGHLPWFERVWYALANHPILLAVLAAISVILLAWVLWRLLRIISRRRLNPDNE	6.42 ± 0.47	7.04 ± 0.67	6.15 ± 0.65	6.28 ± 0.15	5.904 ± 0.057	3.17 ± 0.033	6.1 ± 0.11	10.7 ± 1.2	5.8 ± 0.2	11.4 ± 0.44	6.3 ± 0.39	11.8 ± 0.31
MKRKTLPLLALVATTLFLIACDDRSDDLKAISKFKDLTPPRFSDVVSHQDDVSEEWSQVDYLSGPTLQVLRTRQSPDGCEDGSYYYLVDMQEKTVQPLMNALCIADNIKLEYQEVTDPYTKEKYFEYAHDGKLMGQLLIPSNPDNQE	–	–	–	–	–	–	1.71	–	–	–	–	–
MKRKVLLIPLIIFLAIAAALLWQLARNAEGDDPTNLESALIGKPVPKFRLESLDNPGQFYQADVLTQGKPVLLNVWATWCPTCRAEHQYLNQLSAQGIRVVGMNYKDDRQKAISWLKELGNPYALSLFDGDGMLGLDLGVYGAPETFLIDGNGIIRYRHAGDLNPRVWEEEIKPLWEKYSKEAAQ [P0AA86]	6.39 ± 0.1	–	–	–	6.09 ± 0.34	3 ± 0.084	6.112 ± 0.034	13.3 ± 1.2	6.16 ± 0.32	–	5.3	12.5 ± 1.7
MKRLHKRFLLATFCALFTATLQAADVTITVNGRVVAKPCTIQTKEANVNLGDLYTRNLQQPGSASGWHNITLSLTDCPVETSAVTAIVTGSTDNTGYYKNEGTAENIQIELRDDQDAALKNGDSKTVIVDEITRNAQFPLKARAITVNGNASQGTIEALINVIYTWQ	–	–	–	–	5.55	–	–	–	–	–	–	–
MKRLQAFKFQLRPGGQQECEMRRFAGACRFVFNRALARQNENHEAGNKYIPYGKMASWLVEWKNATETQWLKDSPSQPLQQSLKDLERAYKNFFRKRAAFPRFKKRGQNDAFRYPQGVKLDQENSRIFLPKLGWMRYRNSRQVTGVVKNVTVSQSCGKWYISIQTESEVSTPVHPSASMVGLDAGVAKLATLSDGTVFEPVNSFQKNQKKLARLQRQLSRKVKFSNNWQKQKRKIQRLHSCIANIRRDYLHKVTTAVSKNHAMIVIEDLKVSNMSKSAAGTVSQPGRNVRAKSGLNRSILDQGWYEMRRQLAYKQLWRGGQVLAVPPAYTSQRCAYCGHTAKENRLSQSKFRCQVCGYTANADVNGARNILAAGHAVLACGEMVQSGRPLKQEPTEMIQATA	5.63	–	–	3.54	–	–	6.1 ± 0.35	10.6	–	–	–	> 16
MKRLRNKMTTEELAECLGVAKQTVNRWIREKGWKTEKFPGVKGGRARLILVDTQVCEFIQNTPAFHNTPMLMEAEERIAEYAPGARAPAYRQIINAIDNMTDIEQEKVAQFLSREGIRNFLARLDIDESA	6.16 ± 0.29	–	–	–	–	2.58 ± 0.081	4.56	7.65 ± 1	–	4.62	–	4.26
MKRMIALDGAQGEGGGQILRSALSLSMITGQPFTITSIRAGRAKPGLLRQHLTAVKAATEICGATVEGAELGSQRLLFRPGTVRGGDYRFAIGSAGSCTLVLQTVLPALWFADGPSRVEVSGGTDNPSAPPADFIRRVLEPLLAKIGIHQQTTLLRHGFYPAGGGVVATEVSPVASFNTLQLGERGNIVQMRGEVLLAGVPRHVAEREIATLAGSFSLHEQNIHNLPRDQGPGNTVSLEVESENITERFFVVGEKRVSAEVVAAQLVKEVKRYLASTAAVGEYLADQLVLPMALAGAGEFTVAHPSCHLLTNIAVVERFLPVRFSLIETDGVTRVSIE	5.12 ± 0.25	4.65	5.05	4.457 ± 0.014	4.17 ± 0.09	2.59	5.6 ± 0.12	11.3 ± 1.7	4.52 ± 0.4	–	5.28 ± 0.24	10.9
MKRNAKTIIAGMIALAISHTAMADDIKVAVVGAMSGPIAQWGDMEFNGARQAIKDINAKGGIKGDKLVGVEYDDACDPKQAVAVANKIVNDGIKYVIGHLCSSSTQPASDIYEDEGILMISPGATNPELTQRGYQHIMRTAGLDSSQGPTAAKYILETVKPQRIAIIHDKQQYGEGLARSVQDGLKAANANVVFFDGITAGEKDFSALIARLKKENIDFVYYGGYYPEMGQMLRQARSVGLKTQFMGPEGVGNASLSNIAGDAAEGMLVTMPKRYDQDPANQGIVDALKADKKDPSGPYVWITYAAVQSLATALERTGSDEPLALVKDLKANGANTVIGPLNWDEKGDLKGFDFGVFQWHADGSSTAAK	5.85 ± 0.11	6.16 ± 0.79	6.48 ± 0.55	5.84 ± 0.097	6.01 ± 0.47	3.077 ± 0.0084	6.134 ± 0.039	11.9 ± 0.26	5.87 ± 0.27	12.2 ± 0.64	5.65 ± 0.13	14.3 ± 1.1
